Results: IntAct's records for PubMed 31515488

B1: Aminoacylase-1 (Homo sapiens), Q03154 (parent)
chain: MTSKGPEEEHPSVTLFRQYLRIRTVQPKPDYGAAVAFFEETARQLGLGCQKVEVAPGYVVTVLTWPGTNPTLSSILLNSHTDVVPVFKEHWSHDPFEAFKDSEGYIYARGAQDMKCVSIQYLEAVRRLKVEGHRFPRTIHMTFVPDEEVGGHQGMELFVQRPEFHALRAGFALDEGIANPTDAFTVFYSERSPWWVRVTSTGRPGHASRFMEDTAAEKLHKVVNSILAFREKEWQRLQSNPHLKEGSVTSVNLTKLEGGVAYNVIPATMSASFDFRVAPDVDFKAFEEQLQSWCQAAGEGVTLEFAQKWMHPQVTPTDDSNPWWAAFSRVCKDMNLTLEPEIMPAATDNRYIRAVGVPALGFSPMNRTPVLLHDHDERLHEAVFLRGVDIYTRLLPALASVPALPSDS
partner: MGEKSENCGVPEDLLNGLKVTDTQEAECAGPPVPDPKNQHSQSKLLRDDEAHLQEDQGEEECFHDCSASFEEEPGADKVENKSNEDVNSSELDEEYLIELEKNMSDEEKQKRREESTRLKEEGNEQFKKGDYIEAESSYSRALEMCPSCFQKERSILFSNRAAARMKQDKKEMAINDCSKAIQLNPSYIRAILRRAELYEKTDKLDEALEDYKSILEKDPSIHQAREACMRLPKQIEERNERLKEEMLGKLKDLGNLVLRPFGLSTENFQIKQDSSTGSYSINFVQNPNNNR
B2: Tuftelin-interacting protein 11 (Homo sapiens), Q9UBB9 (parent)
chain: MSLSHLYRDGEGRIDDDDDERENFEITDWDLQNEFNPNRQRHWQTKEEATYGVWAERDSDDERPSFGGKRARDYSAPVNFISAGLKKGAAEEAELEDSDDEEKPVKQDDFPKDFGPRKLKTGGNFKPSQKGFAGGTKSFMDFGSWERHTKGIGQKLLQKMGYVPGRGLGKNAQGIINPIEAKQRKGKGAVGAYGSERTTQSMQDFPVVDSEEEAEEEFQKELSQWRKDPSGSKKKPKYSYKTVEELKAKGRISKKLTAPQKELSQVKVIDMTGREQKVYYSYSQISHKHNVPDDGLPLQSQQLPQSGKEAKAPGFALPELEHNLQLLIDLTEQEIIQNDRQLQYERDMVVNLFHELEKMTEVLDHEERVISNLSKVLEMVEECERRMQPDCSNPLTLDECARIFETLQDKYYEEYRMSDRVDLAVAIVYPLMKEYFKEWDPLKDCTYGTEIISKWKSLLENDQLLSHGGQDLSADAFHRLIWEVWMPFVRNIVTQWQPRNCDPMVDFLDSWVHIIPVWILDNILDQLIFPKLQKEVENWNPLTDTVPIHSWIHPWLPLMQARLEPLYSPIRSKLSSALQKWHPSDSSAKLILQPWKDVFTPGSWEAFMVKNIVPKLGMCLGELVINPHQQHMDAFYWVIDWEGMISVSSLVGLLEKHFFPKWLQVLCSWLSNSPNYEEITKWYLGWKSMFSDQVLAHPSVKDKFNEALDIMNRAVSSNVGAYMQPGARENIAYLTHTERRKDFQYEAMQERREAENMAQRGIGVAASSVPMNFKDLIETKAEEHNIVFMPVIGKRHEGKQLYTFGRIVIYIDRGVVFVQGEKTWVPTSLQSLIDMAK
partner: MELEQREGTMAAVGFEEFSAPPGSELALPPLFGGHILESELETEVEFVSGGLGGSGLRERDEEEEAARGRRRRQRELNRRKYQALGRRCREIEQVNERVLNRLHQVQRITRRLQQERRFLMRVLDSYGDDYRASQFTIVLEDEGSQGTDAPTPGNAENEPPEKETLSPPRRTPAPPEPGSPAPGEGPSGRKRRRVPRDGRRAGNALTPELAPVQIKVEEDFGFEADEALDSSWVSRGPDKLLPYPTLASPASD
B3: Proteasome subunit beta type-1 (Homo sapiens), P20618 (parent)
chain: MLSSTAMYSAPGRDLGMEPHRAAGPLQLRFSPYVFNGGTILAIAGEDFAIVASDTRLSEGFSIHTRDSPKCYKLTDKTVIGCSGFHGDCLTLTKIIEARLKMYKHSNNKAMTTGAIAAMLSTILYSRRFFPYYVYNIIGGLDEEGKGAVYSFDPVGSYQRDSFKAGGSASAMLQPLLDNQVGFKNMQNVEHVPLSLDRAMRLVKDVFISAAERDVYTGDALRICIVTKEGIREETVSLRKD
partner: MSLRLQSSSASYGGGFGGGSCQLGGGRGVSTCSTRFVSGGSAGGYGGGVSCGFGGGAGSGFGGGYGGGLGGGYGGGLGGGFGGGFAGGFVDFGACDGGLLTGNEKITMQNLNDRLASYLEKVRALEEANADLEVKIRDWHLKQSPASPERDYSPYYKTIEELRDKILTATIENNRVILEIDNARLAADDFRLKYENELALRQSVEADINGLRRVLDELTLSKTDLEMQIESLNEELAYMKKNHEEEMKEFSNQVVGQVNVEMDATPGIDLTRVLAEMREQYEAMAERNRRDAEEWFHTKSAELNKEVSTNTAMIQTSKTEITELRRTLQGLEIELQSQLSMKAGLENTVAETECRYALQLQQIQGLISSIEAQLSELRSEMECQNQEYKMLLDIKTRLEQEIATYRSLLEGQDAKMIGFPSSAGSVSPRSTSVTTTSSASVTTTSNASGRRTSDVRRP
B4: Phagosome assembly factor 1 (Homo sapiens), Q9BSU1 (parent)
chain: MLDLEVVPERSLGNEQWEFTLGMPLAQAVAILQKHCRIIKNVQVLYSEQSPLSHDLILNLTQDGIKLMFDAFNQRLKVIEVCDLTKVKLKYCGVHFNSQAIAPTIEQIDQSFGATHPGVYNSAEQLFHLNFRGLSFSFQLDSWTEAPKYEPNFAHGLASLQIPHGATVKRMYIYSGNSLQDTKAPMMPLSCFLGNVYAESVDVLRDGTGPAGLRLRLLAAGCGPGLLADAKMRVFERSVYFGDSCQDVLSMLGSPHKVFYKSEDKMKIHSPSPHKQVPSKCNDYFFNYFTLGVDILFDANTHKVKKFVLHTNYPGHYNFNIYHRCEFKIPLAIKKENADGQTETCTTYSKWDNIQELLGHPVEKPVVLHRSSSPNNTNPFGSTFCFGLQRMIFEVMQNNHIASVTLYGPPRPGSHLRTAELP
B5: Angiomotin (Homo sapiens), Q4VCS5 (parent)
chain: MRNSEEQPSGGTTVLQRLLQEQLRYGNPSENRSLLAIHQQATGNGPPFPSGSGNPGPQSDVLSPQDHHQQLVAHAARQEPQGQEIQSENLIMEKQLSPRMQNNEELPTYEEAKVQSQYFRGQQHASVGAAFYVTGVTNQKMRTEGRPSVQRLNPGKMHQDEGLRDLKQGHVRSLSERLMQMSLATSGVKAHPPVTSAPLSPPQPNDLYKNPTSSSEFYKAQGPLPNQHSLKGMEHRGPPPEYPFKGMPPQSVVCKPQEPGHFYSEHRLNQPGRTEGQLMRYQHPPEYGAARPAQDISLPLSARNSQPHSPTSSLTSGGSLPLLQSPPSTRLSPARHPLVPNQGDHSAHLPRPQQHFLPNQAHQGDHYRLSQPGLSQQQQQQQQQHHHHHHHQQQQQQQPQQQPGEAYSAMPRAQPSSASYQPVPADPFAIVSRAQQMVEILSDENRNLRQELEGCYEKVARLQKVETEIQRVSEAYENLVKSSSKREALEKAMRNKLEGEIRRMHDFNRDLRERLETANKQLAEKEYEGSEDTRKTISQLFAKNKESQREKEKLEAELATARSTNEDQRRHIEIRDQALSNAQAKVVKLEEELKKKQVYVDKVEKMQQALVQLQAACEKREQLEHRLRTRLERELESLRIQQRQGNCQPTNVSEYNAAALMELLREKEERILALEADMTKWEQKYLEENVMRHFALDAAATVAAQRDTTVISHSPNTSYDTALEARIQKEEEEILMANKRCLDMEGRIKTLHAQIIEKDAMIKVLQQRSRKEPSKTEQLSCMRPAKSLMSISNAGSGLLSHSSTLTGSPIMEEKRDDKSWKGSLGILLGGDYRAEYVPSTPSPVPPSTPLLSAHSKTGSRDCSTQTERGTESNKTAAVAPISVPAPVAAAATAAAITATAATITTTMVAAAPVAVAAAAAPAAAAAPSPATAAATAAAVSPAAAGQIPAAASVASAAAVAPSAAAAAAVQVAPAAPAPVPAPALVPVPAPAAAQASAPAQTQAPTSAPAVAPTPAPTPTPAVAQAEVPASPATGPGPHRLSIPSLTCNPDKTDGPVFHSNTLERKTPIQILGQEPDAEMVEYLI
partner: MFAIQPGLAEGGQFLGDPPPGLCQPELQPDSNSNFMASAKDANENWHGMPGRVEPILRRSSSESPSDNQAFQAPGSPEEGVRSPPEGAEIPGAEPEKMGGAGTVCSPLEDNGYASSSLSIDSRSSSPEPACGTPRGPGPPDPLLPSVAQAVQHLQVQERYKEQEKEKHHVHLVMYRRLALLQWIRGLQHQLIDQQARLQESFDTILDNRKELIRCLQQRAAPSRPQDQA

Variants of: B1
Conditions: with ttc1_human TTC1, Q99614

Variant | effect of a mutation on the interaction
R197W | disrupting interaction strength

Variants of: B2
Conditions: with tfpt_human TFPT

Variant | effect of a mutation on the interaction
S688L | with no effect
R8Q | with no effect

Variants of: B3
Conditions: with KRT13, P13646

Variant | effect of a mutation on the interaction
P11A | with no effect

Variants of: B4
Conditions: with bcas3_human BCAS3, Q9H6U6
Sequence of bcas3_human BCAS3, Q9H6U6 (Q9H6U6 whole entry): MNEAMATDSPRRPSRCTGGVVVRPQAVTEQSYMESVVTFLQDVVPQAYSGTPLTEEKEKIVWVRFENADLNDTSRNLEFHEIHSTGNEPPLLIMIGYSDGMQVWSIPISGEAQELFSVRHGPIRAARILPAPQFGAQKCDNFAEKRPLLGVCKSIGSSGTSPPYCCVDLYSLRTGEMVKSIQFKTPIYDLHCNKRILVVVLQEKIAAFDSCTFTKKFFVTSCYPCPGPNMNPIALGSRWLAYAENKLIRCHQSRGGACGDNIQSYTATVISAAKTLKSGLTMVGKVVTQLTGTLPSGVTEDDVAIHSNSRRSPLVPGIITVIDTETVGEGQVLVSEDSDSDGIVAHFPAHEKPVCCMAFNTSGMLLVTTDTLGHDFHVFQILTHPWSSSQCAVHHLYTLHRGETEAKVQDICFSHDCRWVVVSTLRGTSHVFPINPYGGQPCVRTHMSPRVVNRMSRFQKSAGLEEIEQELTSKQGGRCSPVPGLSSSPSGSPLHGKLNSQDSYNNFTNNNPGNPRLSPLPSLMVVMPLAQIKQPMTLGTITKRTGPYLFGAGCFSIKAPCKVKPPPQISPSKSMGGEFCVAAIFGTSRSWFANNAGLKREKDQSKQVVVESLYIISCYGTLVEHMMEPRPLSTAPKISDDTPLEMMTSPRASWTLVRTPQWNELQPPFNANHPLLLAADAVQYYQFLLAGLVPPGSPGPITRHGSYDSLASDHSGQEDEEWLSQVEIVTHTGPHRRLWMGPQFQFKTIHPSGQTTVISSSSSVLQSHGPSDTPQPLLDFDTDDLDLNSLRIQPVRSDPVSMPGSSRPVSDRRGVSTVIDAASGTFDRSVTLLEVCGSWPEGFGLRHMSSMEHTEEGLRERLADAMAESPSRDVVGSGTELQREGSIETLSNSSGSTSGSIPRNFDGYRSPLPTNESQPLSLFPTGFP

Variant | effect of a mutation on the interaction
G13R | with no effect

Variants of: B5
Conditions: with ca216_human C1orf216, Q8TAB5

Variant | effect of a mutation on the interaction
T899A | with no effect
